Experimental data taken from paper PMC3299833.

Assays:
[1] = biological target: E. coli expressed recombinant PKM2 (rPKM2) (human) (UniProt P14618); assay: SEC
[2] = biological target: Pyruvate kinase isoform M2 (PKM2), endogenous (human (endogenous in SW620 and SW480)) (UniProt P14618); assay: SEC

Chain of E. coli expressed recombinant PKM2 (rPKM2), P14618 1-531 (enzyme; other documents disagree on this pair) (P14618 whole entry): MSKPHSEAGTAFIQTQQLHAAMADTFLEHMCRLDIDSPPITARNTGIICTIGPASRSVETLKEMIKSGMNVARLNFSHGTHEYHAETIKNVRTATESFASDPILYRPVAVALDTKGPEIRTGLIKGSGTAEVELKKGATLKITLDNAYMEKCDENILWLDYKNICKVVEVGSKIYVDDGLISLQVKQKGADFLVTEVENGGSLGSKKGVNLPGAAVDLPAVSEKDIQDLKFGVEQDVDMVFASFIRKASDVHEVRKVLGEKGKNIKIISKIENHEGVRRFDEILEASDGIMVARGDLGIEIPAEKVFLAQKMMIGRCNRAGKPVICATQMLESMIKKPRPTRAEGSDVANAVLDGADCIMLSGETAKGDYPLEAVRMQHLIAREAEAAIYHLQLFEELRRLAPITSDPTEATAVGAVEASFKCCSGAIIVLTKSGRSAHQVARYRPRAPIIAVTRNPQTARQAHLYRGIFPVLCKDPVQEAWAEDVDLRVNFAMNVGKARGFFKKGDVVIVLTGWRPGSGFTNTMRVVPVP
Chain of Pyruvate kinase isoform M2 (PKM2), endogenous, P14618 1-531 (enzyme; other documents disagree on this pair) (P14618 whole entry, canonical isoform): as the sequence (P14618 whole entry) above

| stoichiometry N [1] | stoichiometry N [2] | Substance |
| --- | --- | --- |
| 2 |  | E. coli expressed recombinant PKM2 (rPKM2), P14618 1-531 (enzyme; other documents disagree on this pair) |
|  | 2 | Pyruvate kinase isoform M2 (PKM2), endogenous, P14618 1-531 (enzyme; other documents disagree on this pair) |
